As a reminder, the Kd is the concentration at which binding is half-saturated.

For assay [1], the target named is T1, recombinant purification-tagged human GM-CSF receptor α extracellular domain (human, UniProt P15509 23-320).
T1 construct: Amino acids 1 to 298 of the mature receptor; also called purified GM-CSFRα extracellular domain; soluble extracellular domain of GM-CSFRα; not shown: N-terminal purification tag; Flag-tagged
T1 sequence: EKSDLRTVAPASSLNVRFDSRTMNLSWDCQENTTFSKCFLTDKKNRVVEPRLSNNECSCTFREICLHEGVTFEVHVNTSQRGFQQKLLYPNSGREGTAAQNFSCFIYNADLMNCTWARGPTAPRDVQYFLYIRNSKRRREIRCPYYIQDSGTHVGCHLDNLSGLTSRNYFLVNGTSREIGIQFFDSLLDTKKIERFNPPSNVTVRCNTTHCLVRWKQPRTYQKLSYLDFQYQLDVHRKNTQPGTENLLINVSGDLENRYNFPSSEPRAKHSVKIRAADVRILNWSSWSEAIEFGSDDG
Briefly: SPR (BIAcore 2000); IgG4 captured on protein A, tagged receptor ECD as analyte; 1:1 Langmuir fit. (In SPR one partner is held on a chip, and binding of the other changes the refractive index at the surface.)

Assay [2] concerns the target T2, human GM-CSFRα (human, UniProt P15509 23-400).
T2 sequence: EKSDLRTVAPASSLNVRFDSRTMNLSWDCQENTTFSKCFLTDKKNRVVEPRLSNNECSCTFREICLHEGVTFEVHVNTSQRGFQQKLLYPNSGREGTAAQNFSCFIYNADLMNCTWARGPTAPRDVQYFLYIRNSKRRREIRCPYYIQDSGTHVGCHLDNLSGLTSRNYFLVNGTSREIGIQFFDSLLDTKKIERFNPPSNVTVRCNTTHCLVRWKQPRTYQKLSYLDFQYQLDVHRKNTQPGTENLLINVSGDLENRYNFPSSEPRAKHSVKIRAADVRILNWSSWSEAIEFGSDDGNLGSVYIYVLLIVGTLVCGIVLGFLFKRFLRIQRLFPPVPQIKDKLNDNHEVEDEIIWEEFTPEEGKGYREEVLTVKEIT
Description: cell-based or functional assay.

In assay [3] the target is T2, human GM-CSFRα. Description: cell-based or functional assay. This is another data set of the same source.
In assay [4] the target is T2, human GM-CSFRα. Description: cell-based or functional assay. The source holds these as a separate data set.

B1: Antibody 4 (antibody, V domains shown)
VH: QVQLVQSGAEVKKPGASVKVSCKISGHSLSELSIHWVRQTPTKGFEWMGGFDPEENEIVYAQRFQGRVTMTEDTSIDTAYLTLSSLRSDDTAVYYCAIVGSFSPPTYGYWGKGTMVTVSS
VL: QAVLTQPSSVSGAPGQRVTISCTGSGSNIGAPYDVSWYQQLPGTAPKLLIYHNNKRPSGVPDRFSASKSGTSASLAITGLQADDEADYYCQSYDSSLSGSVFGGGTKVTVL
notes: also called Antibody 04; Ab4
For the molecule B1, in assay [1], the dissociation constant (Kd) was determined as 4.07 nM. Besides, in assay [2], the “IC50, TF-1 proliferation assay (7 pM human GM-CSF)” value (from here on “IC50, TF-1 proliferation assay”) was found to be 48 pM.

B2: Antibody 6, non-germlined IgG4 (antibody, V domains shown)
VH: QVQLVQSGAEVKKPGASVKVSCKISGHSLSELSIHWVRQTPTKGFEWMGGFDPEENEIVYAQRFQGRVTMTEDTSIDTAYLTLSSLRSDDTAVYYCSIVGSFSPLTLGLWGKGTMVTVSS
VL: QAVLTQPSSVSGAPGQRVTISCTGSGSNIGAPYDVSWYQQLPGTAPKLLIYHNNKRPSGVPDRFSASKSGTSASLAITGLQADDEADYYCATVEAGLSGSVFGGGTKLTVL
B2: the Kd in assay [1] is 0.139 nM. For the same molecule, in assay [2], the “IC50, TF-1 proliferation assay” value came to 0.97 pM. For the same molecule, in assay [3], the “IC50, monocyte TNFα release assay (1 nM human GM-CSF)” value (shortened to “IC50, monocyte TNFα release assay”) worked out at 0.043 nM. For the same molecule, the “IC50, human granulocyte shape change assay (7 pM human GM-CSF)” value in assay [4] stood at 13.3 pM.

B3: Antibody 19 (antibody, V domains shown)
VH: QVQLVQSGAEVKKPGASVKVSCKISGHSLSELSIHWVRQTPTKGFEWMGGFDPEENEIVYAQRFQGRVTMTEDTSIDTAYLTLSSLRSDDTAVYYCAIVGSVSRITYGFWGKGTMVTVSS
VL: QAVLTQPSSVSGAPGQRVTISCTGSGSNIGAPYDVSWYQQLPGTAPKLLIYHNNKRPSGVPDRFSASKSGTSASLAITGLQADDEADYYCQSYDSRNPHVIFGGGTKLTVL
notes: also called Ab19
For B3, the Kd in assay [1] stood at 0.388 nM. Moreover, the “IC50, TF-1 proliferation assay” value in assay [2] is 23.8 pM.

B4: Antibody 15 (antibody, V domains shown)
VH: QVQLVQSGAEVKKPGASVKVSCKISGHSLSELSIHWVRQTPTKGFEWMGGFDPEENEIVYAQRFQGRVTMTEDTSIDTAYLTLSSLRSDDTAVYYCSIAGSIPGWAFDYWGKGTMVTVSS
VL: QAVLTQPSSVSGAPGQRVTISCTGSGSNIGAPYDVSWYQQLPGTAPKLLIYHNNKRPSGVPDRFSASKSGTSASLAITGLQADDEADYYCQSYDSQLISAAFGGGTKVTVL
notes: also called Ab15
With B4, in assay [1], the Kd is 1.03 nM. Besides, the “IC50, TF-1 proliferation assay” value in assay [2] was found to be 164 pM.

B5: Antibody 12 (antibody, V domains shown)
VH: QVQLVQSGAEVKKPGASVKVSCKISGHSLSELSIHWVRQTPTKGFEWMGGFDPEENEIVYAQRFQGRVTMTEDTSIDTAYLTLSSLRSDDTAVYYCSIVGSFSGWAFDYWGKGTMVTVSS
VL: QAVLTQPSSVSGAPGQRVTISCTGSGSNIGAPYDVSWYQQLPGTAPKLLIYHNNKRPSGVPDRFSASKSGTSASLAITGLQADDEADYYCQSYDSEPTEIRFGGGTKLTVL
notes: also called Ab12
Take B5: in assay [1], the Kd stood at 3.02 nM. For the same molecule, the “IC50, TF-1 proliferation assay” value in assay [2] was determined as 246 pM.

B6: Antibody 17 (antibody, V domains shown)
VH: QVQLVQSGAEVKKPGASVKVSCKISGHSLSELSIHWVRQTPTKGFEWMGGFDPEENEIVYAQRFQGRVTMTEDTSIDTAYLTLSSLRSDDTAVYYCSIVGSFSPLTMGLWGKGTMVTVSS
VL: QAVLTQPSSVSGAPGQRVTISCTGSGSNIGAPYDVSWYQQLPGTAPKLLIYHNNKRPSGVPDRFSASKSGTSASLAITGLQADDEADYYCATVEDGLSGSVFGGGTKVTVL
notes: also called Ab17
As to B6, in assay [1], the equilibrium dissociation constant (Kd) amounted to 0.193 nM. Also, the “IC50, TF-1 proliferation assay” value in assay [2] turned out to be 14.3 pM.

B7: Antibody 11 (antibody, V domains shown)
VH: QVQLVQSGAEVKKPEASVKVSCKIPGHSLSELSIHWVRQTPTKGFEWMGGFDPEENEIVYAQRFQGRVTMTEDTSIDTAYLTLSSLRSDDTAVYYCAIVGSFSPITYGLWGKGTMVTVSS
VL: QAVLTQPSSVSGVPGQRVTISCTGSGSNIGAPYDVSWYQQLPGTAPKLLIYHNNKRPSGVPDRFSASKSGTSASLAITGLQADDEADYYCQSYDSSLSGSVFGGGTKVTVL
B7: in assay [2], the “IC50, TF-1 proliferation assay” value was found to be 9 pM. Moreover, in assay [4], the “IC50, human granulocyte shape change assay (7 pM human GM-CSF)” value worked out at 90 pM.

B8: Antibody 16 (antibody, V domains shown)
VH: QVQLVQSGAEVKKPGASVKVSCKISGHSLSELSIHWVRQTPTKGFEWMGGFDPEENEIVYAQRFQGRVTMTEDTSIDTAYLTLSSLRSDDTAVYYCSIVGSFSPLTMGLWGKGTMVTVSS
VL: QAVLTQPSSVSGAPGQRVTISCTGSGSNIGAPYDVSWYQQLPGTAPKLLIYHNNKRPSGVPDRFSASKSGTSASLAITGLQAEDEADYYCATSDEILSGSVFGGGTKVTVL
notes: also called Ab16
In the case of B8, the Kd in assay [1] came out at 1.14 nM. In assay [2], the “IC50, TF-1 proliferation assay” value was 12.8 pM. Moreover, the “IC50, human granulocyte shape change assay (7 pM human GM-CSF)” value in assay [4] was found to be 16 pM.

B9: Antibody 14 (antibody, V domains shown)
VH: QVQLVQSGAEVKKPGASVKVSCKISGHSLSELSIHWVRQTPTKGFEWMGGFDPEENEIVYAQRFQGRVTMTEDTSIDTAYLTLSSLRSDDTAVYYCSILGSVTAWAFDYWGKGTMVTVSS
VL: QAVLTQPSSVSGAPGQRVTISCTGSGSNIGAPYDVSWYQQLPGTAPKLLIYHNNKRPSGVPDRFSASKSGTSASLAITGLQADDEADYYCQSYDSEDRMTEFGGGTKVTVL
notes: also called Ab14
Consider B9, for which, in assay [1], the dissociation constant Kd was 0.502 nM. Further, the “IC50, TF-1 proliferation assay” value in assay [2] stood at 16.3 pM.

B10: Antibody 10 (antibody, V domains shown)
VH: QVQLVQSGAEVKKPGASVKVSCKISGHSLSELSIHWVRQTPTKGFEWMGGFDPEENEIVYAQRFQGRVTMTEDTSIDTAYLTLSSLRSDDTAVYYCAIVGSFSGLAYRPWGKGTMVTISS
VL: QAVLTQPSSVSGAPGQRVTISCTGSGSNIGAPYDVSWYQQLPGTAPKLLIYHNNKRPSGVPDRFSASKSGTSASLAITGLQADDEADYYCQSYDSSLSGSVFGGGTKVTVL
notes: also called Ab10
Regarding B10, the Kd in assay [1] came out at 1.5 nM. Moreover, the “IC50, TF-1 proliferation assay” value in assay [2] was determined as 55.3 pM. In assay [3], the “IC50, monocyte TNFα release assay” value was 0.139 nM. The “IC50, human granulocyte shape change assay (7 pM human GM-CSF)” value in assay [4] came out at 62 pM.

B11: Antibody 5 (antibody, V domains shown)
VH: QVQLVQSGAEVKKPGASVKVSCKISGHSLSELSIHWVRQTPTKGFEWMGGFDPEENEIVYAQRFQGRVTMTEDTSIDTAYLTLSSLRSDDTAVYYCAIVGSFSGYPYRPWGQGTMVTVSS
VL: QAVLTQPSSVSGAPGQRVTISCTGSGSNIGAPYDVSWYQQLPGTAPKLLIYHNNKRPSGVPDRFSASKSGTSASLAITGLQADDEADYYCQSYDSSLSGSVFGGGTKVTVL
notes: also called Antibody 05; Ab5
Take B11: the Kd in assay [1] came out at 0.847 nM. Further, in assay [2], the “IC50, TF-1 proliferation assay” value was 9.3 pM. The “IC50, monocyte TNFα release assay” value in assay [3] was 0.067 nM. In assay [4], the “IC50, human granulocyte shape change assay (7 pM human GM-CSF)” value came out at 30 pM.

B12: Antibody 9 (antibody, V domains shown)
VH: QVQLVQSGAEVKKPGASVKVSCKISGHSLSELSIHWVRQTPTKGFEWMGGFDPEENEIVYAQRFQGRVTMTEDTSIDTAYLTLSSLRSDDTAVYYCAIVGSFSPVTYGLWGQGTMVTVSS
VL: QAVLTQPSSVSGAPGQRVTISCTGSGSNIGAPYDVSWYQQLPGTAPKLLIYHNNKRPSGVPDRFSASKSGTSASLAITGLQADDEADYYCQSYDSSLSGSVFGGGTKVTVL
On to B12, for which the “IC50, TF-1 proliferation assay” value in assay [2] is 40.8 pM. The “IC50, monocyte TNFα release assay” value in assay [3] was 0.074 nM. In addition, the “IC50, human granulocyte shape change assay (7 pM human GM-CSF)” value in assay [4] came to 44 pM.

B13: Antibody 8 (antibody, V domains shown)
VH: QVQLVQSGAEVKKPGASVKVSCKISGHSLSELSIHWVRQTPTKGFEWMGGFDPEENEIVYAQRFQGRVTMTEDTSIDTAYLTLSSLRSDDTAVYYCAIVGSFSPPAYRPWGKGTMVTVSS
VL: QAVLTQPSSVSGAPGQRVTISCTGSGSNIGAPYDVSWYQQLPGTAPKLLIYHNNKRPSGVPDRFSASKSGTSASLAITGLQADDEADYYCQSYDSSLSGSVFGGGTKVTVL
notes: also called Antibody 08; Ab8
With B13, the dissociation constant (Kd) in assay [1] is 0.552 nM. Moreover, in assay [2], the “IC50, TF-1 proliferation assay” value was determined as 34.5 pM.

B14: Antibody 7 (antibody, V domains shown)
VH: QVQLVQSGAEVKKPGASVKVSCKISGHSLSELSIHWVRQTPTKGFEWMGGFDPEENEIVYAQRFQGRVTMTEDTSIDTAYLTLSSLRSDDTAVYYCAIVGSFSGPVYGLWGKGTMVTVSS
VL: QAVLTQPSSVSGAPGQRVTISCTGSGSNIGAPYDVSWYQQLPGTAPKLLIYHNNKRPSGVPDRFSASKSGTSASLAITGLQADDEADYYCQSYDSSLSGSVFGGGTKVTVL
notes: also called Antibody 07; Ab7
For B14, the dissociation constant Kd in assay [1] came to 3.93 nM. In addition, in assay [2], the “IC50, TF-1 proliferation assay” value turned out to be 93.8 pM.

B15: Antibody 20 (antibody, V domains shown)
VH: QVQLVQSGAEVKKPGASVKVSCKISGHSLSELSIHWVRQTPTKGFEWMGGFDPEENEIVYAQRFQGRVTMTEDTSIDTAYLTLSSLRSDDTAVYYCSIVGSFSPLTLGLWGKGTMVTVSS
VL: QAVLTQPSSVSGAPGQRVTISCTGSGSNIGAPYDVSWYQQLPGTAPKLLIYHNNKRPSGVPDRFSASKSGTSASLAITGLQADDEADYYCATVDEALSGSVFGGGTKVTVL
notes: also called Ab20
Regarding B15, the Kd in assay [1] is 0.127 nM. Further, the “IC50, TF-1 proliferation assay” value in assay [2] was 9.8 pM. Also, the “IC50, human granulocyte shape change assay (7 pM human GM-CSF)” value in assay [4] came out at 7.8 pM.

Source of the values: US20120141464A1 (ZENYTH OPERATIONS, published 2012).
